Reference: paper PMC10645729

T1: human ribonucleotide reductase large subunit RRM1 (human) (UniProt P23921)
T1 sequence: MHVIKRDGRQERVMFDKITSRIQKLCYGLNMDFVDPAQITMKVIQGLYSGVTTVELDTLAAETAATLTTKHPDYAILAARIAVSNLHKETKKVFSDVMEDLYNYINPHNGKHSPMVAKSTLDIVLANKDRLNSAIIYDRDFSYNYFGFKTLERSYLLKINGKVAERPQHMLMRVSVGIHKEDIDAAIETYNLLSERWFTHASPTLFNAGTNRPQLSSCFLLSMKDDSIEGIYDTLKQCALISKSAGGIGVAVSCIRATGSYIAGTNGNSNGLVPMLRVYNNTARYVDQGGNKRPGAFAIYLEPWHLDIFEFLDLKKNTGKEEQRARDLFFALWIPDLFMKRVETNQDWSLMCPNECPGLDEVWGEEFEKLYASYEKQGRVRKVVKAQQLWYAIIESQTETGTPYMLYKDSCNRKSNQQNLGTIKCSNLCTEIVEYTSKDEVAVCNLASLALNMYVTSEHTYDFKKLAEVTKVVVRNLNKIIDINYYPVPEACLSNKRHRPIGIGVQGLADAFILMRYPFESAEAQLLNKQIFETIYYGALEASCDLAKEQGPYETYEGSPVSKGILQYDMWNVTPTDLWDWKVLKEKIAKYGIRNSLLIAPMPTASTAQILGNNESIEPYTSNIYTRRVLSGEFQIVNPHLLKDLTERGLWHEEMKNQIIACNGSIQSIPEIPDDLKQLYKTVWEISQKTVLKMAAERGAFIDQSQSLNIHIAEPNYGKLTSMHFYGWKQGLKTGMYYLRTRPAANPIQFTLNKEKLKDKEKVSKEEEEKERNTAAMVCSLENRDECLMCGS


Molecular target: T1, human ribonucleotide reductase large subunit RRM1 (human)

Row | RNR activity of the reconstituted complex (CDP to dCDP, HPLC), percent of wild-type hRRM2B; hRRM1 2 μM, hRRM2B 6 μM (% of wild type) | Binder
1 | 33 | hRRM2B N221S (enzyme) MGDPERPEAAGLDQDERSSSDTNESEIKSNEEPLLRKSSRRFVIFPIQYPDIWKMYKQAQASFWTAEEVDLSKDLPHWNKLKADEKYFISHILAFFAASDGIVNENLVERFSQEVQVPEARCFYGFQILIENVHSEMYSLLIDTYIRDPKKREFLFNAIETMPYVKKKADWALRWIADRKSTFGERVVAFAAVEGVFFSGSFAAIFWLKKRGLMPGLTFSSELISRDEGLHCDFACLMFQYLVNKPSEERVREIIVDAVKIEQEFLTEALPVGLIGMNCILMKQYIEFVADRLLVELGFSKVFQAENPFDFMENISLEGKTNFFEKRVSEYQRFAVMAETTDNVFTLDADF
2 | 11.7 | hRRM2B F206G (enzyme) MGDPERPEAAGLDQDERSSSDTNESEIKSNEEPLLRKSSRRFVIFPIQYPDIWKMYKQAQASFWTAEEVDLSKDLPHWNKLKADEKYFISHILAFFAASDGIVNENLVERFSQEVQVPEARCFYGFQILIENVHSEMYSLLIDTYIRDPKKREFLFNAIETMPYVKKKADWALRWIADRKSTFGERVVAFAAVEGVFFSGSFAAIGWLKKRGLMPGLTFSNELISRDEGLHCDFACLMFQYLVNKPSEERVREIIVDAVKIEQEFLTEALPVGLIGMNCILMKQYIEFVADRLLVELGFSKVFQAENPFDFMENISLEGKTNFFEKRVSEYQRFAVMAETTDNVFTLDADF
3 | 21.5 | hRRM2B F202G (enzyme) MGDPERPEAAGLDQDERSSSDTNESEIKSNEEPLLRKSSRRFVIFPIQYPDIWKMYKQAQASFWTAEEVDLSKDLPHWNKLKADEKYFISHILAFFAASDGIVNENLVERFSQEVQVPEARCFYGFQILIENVHSEMYSLLIDTYIRDPKKREFLFNAIETMPYVKKKADWALRWIADRKSTFGERVVAFAAVEGVFFSGSGAAIFWLKKRGLMPGLTFSNELISRDEGLHCDFACLMFQYLVNKPSEERVREIIVDAVKIEQEFLTEALPVGLIGMNCILMKQYIEFVADRLLVELGFSKVFQAENPFDFMENISLEGKTNFFEKRVSEYQRFAVMAETTDNVFTLDADF
4 | 19.1 | hRRM2B F198G (enzyme) MGDPERPEAAGLDQDERSSSDTNESEIKSNEEPLLRKSSRRFVIFPIQYPDIWKMYKQAQASFWTAEEVDLSKDLPHWNKLKADEKYFISHILAFFAASDGIVNENLVERFSQEVQVPEARCFYGFQILIENVHSEMYSLLIDTYIRDPKKREFLFNAIETMPYVKKKADWALRWIADRKSTFGERVVAFAAVEGVFGSGSFAAIFWLKKRGLMPGLTFSNELISRDEGLHCDFACLMFQYLVNKPSEERVREIIVDAVKIEQEFLTEALPVGLIGMNCILMKQYIEFVADRLLVELGFSKVFQAENPFDFMENISLEGKTNFFEKRVSEYQRFAVMAETTDNVFTLDADF
